Laboratory results from US20210221899A1 (published 2021).
Substitutions are numbered along the chain they refer to.

T1: human NGF (human, UniProt P01138 122-241)
T1 construct: also called human Nerve Growth Factor; hN
T1 chain: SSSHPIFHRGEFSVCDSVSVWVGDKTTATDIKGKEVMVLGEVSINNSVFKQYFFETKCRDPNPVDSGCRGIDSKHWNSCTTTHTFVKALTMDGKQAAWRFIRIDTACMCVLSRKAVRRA

T2: canine NGF (canine, UniProt Q29074 110-229 (pig entry), limits assumed)
T2 construct: The protein was secreted from CHO cells and purified; also called cNGF; canine β-NGF
T2 chain: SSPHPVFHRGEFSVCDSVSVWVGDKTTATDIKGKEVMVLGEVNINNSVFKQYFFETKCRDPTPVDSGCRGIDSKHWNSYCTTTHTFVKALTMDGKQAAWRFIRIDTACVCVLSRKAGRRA

B1: can48L2VH_G54A (antibody, V domains shown)
VH: EVQLVESGGDLVKPGGSLRLSCVASGFTFSTYGINWVRQAPGKGLQWVAYISSAGSSTYYADPVKGRFTISRDDAKNMLYLQMNSLRAEDTAIYYCAGSRYTYAYGGGYEFHFWGQGTLVTVSS
VL: QAVLNQPASVSGALGQKVTISCSGSTMDIDIFGVSWYQQLPGKAPKLLVDSDGDRPSGIPDRFSGSRSGNSGTLTITGLQAEDEADYHCQSGDSTLGALAIFGGGTHVTVL
notes: CDR scanning mutant of ZTS-842 (48L2)
B2: can48L2VH_S56A (antibody, V domains shown)
VH: B1 VH with A54G, S56A
VL: B1 VL
notes: as for B1
B3: can48L2VH_S53A (antibody, V domains shown)
VH: B1 VH with S53A, A54G
VL: B1 VL
notes: as for B1
B4: can48L2VH_T58A (antibody, V domains shown)
VH: B1 VH with A54G, T58A
VL: B1 VL
notes: as for B1
B5: can48L2VH_S57A (antibody, V domains shown)
VH: B1 VH with A54G, S57A
VL: B1 VL
notes: as for B1
B6: can48L2VH_T31A (antibody, V domains shown)
VH: B1 VH with T31A, A54G
VL: B1 VL
notes: as for B1
B7: can48L2VH_G55A (antibody, V domains shown)
VH: B1 VH with A54G, G55A
VL: B1 VL
notes: as for B1
B8: can48L2VH_I51A (antibody, V domains shown)
VH: B1 VH with I51A, A54G
VL: B1 VL
notes: as for B1
B9: can48L2VH_H112A (antibody, V domains shown)
VH: B1 VH with A54G, H112A
VL: B1 VL
notes: as for B1
B10: can48L2VL_A98L (antibody, V domains shown)
VH: B1 VH with A54G
VL: B1 VL with A98L
notes: as for B1
B11: can48L2VH_S52A (antibody, V domains shown)
VH: B1 VH with S52A, A54G
VL: B1 VL
notes: as for B1

Target: T1, human NGF
Experiment: SPR (Biacore T200), 100 nM mAb on NGF chip, similarity to parent mAb
Outline: (§1)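 CDR alanine-scan mutants of the anti-NGF mAb were each run at 100 nM over an NGF-coated Biacore T200 chip. A threshold band was set from the mean response units of four parent-mAb replicates ±3 SD, covering both on- and off-rate phases. The score is the percentage of each mutant's data points falling inside that band.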
For B1, the “Percent Similarity Score (KD on hN)” value was 100%.
In the case of B2, the “Percent Similarity Score (KD on hN)” value is reported as 99.9%.
For B3, the “Percent Similarity Score (KD on hN)” value was 100%.
For B4, the “Percent Similarity Score (KD on hN)” value was 99.9%.
For B5, the “Percent Similarity Score (KD on hN)” value was 100%.
B6 was tested, and the “Percent Similarity Score (KD on hN)” value was 99.9%.
For B7, the “Percent Similarity Score (KD on hN)” value was 100%.
B8 was tested, and the “Percent Similarity Score (KD on hN)” value was 81.8%.
B9 was tested, and the “Percent Similarity Score (KD on hN)” value was 51.2%.
B10 was tested, and the “Percent Similarity Score (KD on hN)” value was 99.8%.
With B11 the “Percent Similarity Score (KD on hN)” value was 100%.

Target: T2, canine NGF
Experiment: as above
Outline: as §1
With B1 the “Percent Similarity Score (KD on cN)” value was 98.1%.
For B2, the “Percent Similarity Score (KD on cN)” value was 99.3%.
B3 was tested, and the “Percent Similarity Score (KD on cN)” value was 97.8%.
In the case of B4, the “Percent Similarity Score (KD on cN)” value is reported as 99.1%.
With B5 the “Percent Similarity Score (KD on cN)” value was 98.4%.
In the case of B6, the “Percent Similarity Score (KD on cN)” value is reported as 99.6%.
For B7, the “Percent Similarity Score (KD on cN)” value was 99.3%.
With B8 the “Percent Similarity Score (KD on cN)” value was 24.2%.
B9 was tested, and the “Percent Similarity Score (KD on cN)” value was 40.3%.
In the case of B10, the “Percent Similarity Score (KD on cN)” value is reported as 97.3%.
In the case of B11, the “Percent Similarity Score (KD on cN)” value is reported as 99.4%.

Each binder was assayed against T3, rat NGF (rat, UniProt P25427 122-241) in the same assay as above.
T3 construct: also called rN
T3 sequence (P25427 122-241 limits assumed): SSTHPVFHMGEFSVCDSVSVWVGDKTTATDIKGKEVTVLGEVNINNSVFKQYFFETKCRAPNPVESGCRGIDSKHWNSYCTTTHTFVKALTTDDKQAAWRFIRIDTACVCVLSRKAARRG
Outline: as §1
In the case of B1, the “Percent Similarity Score (KD on rN)” value is reported as 99.3%.
For B2, the “Percent Similarity Score (KD on rN)” value was 99.8%.
With B3 the “Percent Similarity Score (KD on rN)” value was 99.4%.
B4 was tested, and the “Percent Similarity Score (KD on rN)” value was 99.7%.
In the case of B5, the “Percent Similarity Score (KD on rN)” value is reported as 99.7%.
In the case of B6, the “Percent Similarity Score (KD on rN)” value is reported as 99.9%.
For B7, the “Percent Similarity Score (KD on rN)” value was 99.7%.
For B8, the “Percent Similarity Score (KD on rN)” value was 37.2%.
For B9, the “Percent Similarity Score (KD on rN)” value was 98.5%.
In the case of B10, the “Percent Similarity Score (KD on rN)” value is reported as 98.4%.
B11 was tested, and the “Percent Similarity Score (KD on rN)” value was 99.8%.
